Assay results published in patent US20230272119A1 (MARENGO THERAPEUTICS, published 2023).

Experiments:
[1] = biological target: T1, α-IGF1R heavy-LgBiT (SEQ ID NO: 116); assay: NanoBiT, HC-LgBiT:LC-SmBiT:competing LC 1:1:1; competing lambda LC m54 (SEQ ID NO: 145)
T1 construct: VH-CH1-linker-LgBiT; germline VH3-23*01

[2] = biological target: T1, α-IGF1R heavy-LgBiT (SEQ ID NO: 116); assay: NanoBiT, HC-LgBiT:LC-SmBiT:competing LC 1:1:1; competing lambda LC m60 (SEQ ID NO: 151)
[3] = biological target: T1, α-IGF1R heavy-LgBiT (SEQ ID NO: 116); assay: NanoBiT, HC-LgBiT:LC-SmBiT:competing LC 1:1:1; competing lambda LC m66 (SEQ ID NO: 157)
[4] = biological target: T1, α-IGF1R heavy-LgBiT (SEQ ID NO: 116); assay: NanoBiT, HC-LgBiT:LC-SmBiT:competing LC 1:1:1; competing lambda LC m69 (SEQ ID NO: 160)
[5] = biological target: T1, α-IGF1R heavy-LgBiT (SEQ ID NO: 116); assay: NanoBiT, HC-LgBiT:LC-SmBiT:competing LC 1:1:1; competing lambda LC m72 (SEQ ID NO: 163)
[6] = biological target: T2, α-IL12β heavy-LgBiT (SEQ ID NO: 161); assay: NanoBiT, HC-LgBiT:LC-SmBiT:competing LC 1:1:1; competing kappa LC m6 (SEQ ID NO: 97)
T2 construct: VH-CH1-linker-LgBiT; germline VH3-33*01

[7] = biological target: T2, α-IL12β heavy-LgBiT (SEQ ID NO: 161); assay: NanoBiT, HC-LgBiT:LC-SmBiT:competing LC 1:1:1; competing kappa LC m9 (SEQ ID NO: 100)
[8] = biological target: T2, α-IL12β heavy-LgBiT (SEQ ID NO: 161); assay: NanoBiT, HC-LgBiT:LC-SmBiT:competing LC 1:1:1; competing kappa LC m12 (SEQ ID NO: 103)
[9] = biological target: T2, α-IL12β heavy-LgBiT (SEQ ID NO: 161); assay: NanoBiT, HC-LgBiT:LC-SmBiT:competing LC 1:1:1; competing kappa LC m15 (SEQ ID NO: 106)
[10] = biological target: T2, α-IL12β heavy-LgBiT (SEQ ID NO: 161); assay: NanoBiT, HC-LgBiT:LC-SmBiT:competing LC 1:1:1; competing kappa LC m18 (SEQ ID NO: 109)
[11] = biological target: T3, α-activin receptors heavy-LgBiT (SEQ ID NO: 149); assay: NanoBiT, HC-LgBiT:LC-SmBiT:competing LC 1:1:1; competing kappa LC m6 (SEQ ID NO: 97)
T3 construct: VH-CH1-linker-LgBiT; germline VH1-46*01

[12] = biological target: T3, α-activin receptors heavy-LgBiT (SEQ ID …); assay: NanoBiT, HC-LgBiT:LC-SmBiT:competing LC 1:1:1; competing kappa LC m9 (SEQ ID NO: 100)
[13] = biological target: T3, α-activin receptors heavy-LgBiT (SEQ ID …); assay: NanoBiT, HC-LgBiT:LC-SmBiT:competing LC 1:1:1; competing kappa LC m12 (SEQ ID NO: 103)
[14] = biological target: T3, α-activin receptors heavy-LgBiT (SEQ ID …); assay: NanoBiT, HC-LgBiT:LC-SmBiT:competing LC 1:1:1; competing kappa LC m24 (SEQ ID NO: 115)
[15] = biological target: T3, α-activin receptors heavy-LgBiT (SEQ ID …); assay: NanoBiT, HC-LgBiT:LC-SmBiT:competing LC 1:1:1; competing kappa LC m27 (SEQ ID NO: 118)
[16] = biological target: T3, α-activin receptors heavy-LgBiT (SEQ ID …); assay: NanoBiT, HC-LgBiT:LC-SmBiT:competing LC 1:1:1; competing kappa LC m33 (SEQ ID NO: 124)
[17] = biological target: T3, α-activin receptors heavy-LgBiT (SEQ ID …); assay: NanoBiT, HC-LgBiT:LC-SmBiT:competing LC 1:1:1; competing kappa LC m42 (SEQ ID NO: 133)
[18] = biological target: T4, α-CSF2 heavy-LgBiT (SEQ ID NO: 101); assay: NanoBiT, HC-LgBiT:LC-SmBiT:competing LC 1:1:1; competing lambda LC m48 (SEQ ID NO: 139)
T4 construct: VH-CH1-linker-LgBiT; germline VH1-3*01

[19] = biological target: T4, α-CSF2 heavy-LgBiT (SEQ ID NO: 101); assay: NanoBiT, HC-LgBiT:LC-SmBiT:competing LC 1:1:1; competing lambda LC m66 (SEQ ID NO: 157)
[20] = biological target: T4, α-CSF2 heavy-LgBiT (SEQ ID NO: 101); assay: NanoBiT, HC-LgBiT:LC-SmBiT:competing LC 1:1:1; competing lambda LC m69 (SEQ ID NO: 160)
[21] = biological target: T4, α-CSF2 heavy-LgBiT (SEQ ID NO: 101); assay: NanoBiT, HC-LgBiT:LC-SmBiT:competing LC 1:1:1; competing lambda LC m72 (SEQ ID NO: 163)
[22] = biological target: T5, α-CTLA4 heavy-hCHIg_Knob_Cys (SEQ ID NO: 168) (Homo sapiens (Human), UniProt P0DOX5 1-449 = IgG part); assay: intact MS of papain-cleaved multispecific molecule 4; mispaired Fab observed (observed mass, Da)
T5 construct: full heavy chain, human Fc knob; Fab analysed after papain cleavage in the MS assay; germline VH3-30*01; also called HCP2 of multispecific molecules 3, 4, 5, 9

[23] = biological target: T6, α-TNFR10β heavy-hCHIg_Hole_Cys (SEQ ID NO: 177); assay: intact MS of papain-cleaved multispecific molecule 4; Fab of this pairing observed (observed mass, Da)
T6 construct: full heavy chain, human Fc hole; Fab analysed after papain cleavage in the MS assay; also called α-TRAILR2 arm first chain; HCP1 of multispecific molecules 4, 6, 12

[24] = biological target: T7, α-CTLA4 heavy-hCHIg_Knob_Cys-GH_scFv (SEQ ID NO: 169); assay: KappaSelect resin analysis of multispecific molecule 12, reduced gel; said to agree with lambda light chain pairing with the kappa heavy chain in molecule 4
T7 construct: full heavy chain, human Fc knob, C-terminal scFv; germline VH3-30*01; also called HCP2 of multispecific molecule 12

[25] = biological target: T8, α-CD221 heavy-hCHIg_Hole_Cys (SEQ ID NO: 180); assay: intact MS of papain-cleaved multispecific molecule 5; Fab of this pairing observed (observed mass, Da)
T8 construct: full heavy chain, human Fc hole; Fab analysed after papain cleavage in the MS assay; germline VH1-69*01; also called HCP1 of multispecific molecule 5

[26] = biological target: T9, α-TRAILR2 heavy-LgBiT (SEQ ID NO: 146); assay: NanoBiT, HC-LgBiT:LC-SmBiT:competing LC 1:1:1; competing kappa LC m6 (SEQ ID NO: 97)
T9 construct: VH-CH1-linker-LgBiT; germline VH3-20*01

[27] = biological target: T9, α-TRAILR2 heavy-LgBiT (SEQ ID NO: 146); assay: NanoBiT, HC-LgBiT:LC-SmBiT:competing LC 1:1:1; competing kappa LC m12 (SEQ ID NO: 103)
[28] = biological target: T9, α-TRAILR2 heavy-LgBiT (SEQ ID NO: 146); assay: NanoBiT, HC-LgBiT:LC-SmBiT:competing LC 1:1:1; competing kappa LC m15 (SEQ ID NO: 106)
[29] = biological target: T9, α-TRAILR2 heavy-LgBiT (SEQ ID NO: 146); assay: NanoBiT, HC-LgBiT:LC-SmBiT:competing LC 1:1:1; competing kappa LC m18 (SEQ ID NO: 109)
[30] = biological target: T9, α-TRAILR2 heavy-LgBiT (SEQ ID NO: 146); assay: NanoBiT, HC-LgBiT:LC-SmBiT:competing LC 1:1:1; competing kappa LC m21 (SEQ ID NO: 112)
[31] = biological target: T9, α-TRAILR2 heavy-LgBiT (SEQ ID NO: 146); assay: NanoBiT, HC-LgBiT:LC-SmBiT:competing LC 1:1:1; competing kappa LC m24 (SEQ ID NO: 115)
[32] = biological target: T9, α-TRAILR2 heavy-LgBiT (SEQ ID NO: 146); assay: NanoBiT, HC-LgBiT:LC-SmBiT:competing LC 1:1:1; competing kappa LC m42 (SEQ ID NO: 133)

B1: α-IGF1R light-SmBiT (SEQ ID NO: 117) (other)
light: DIQMTQSPSSLSASLGDRVTITCRASQGISSYLAWYQQKPGKAPKLLIYAKSTLQSGVPSRFSGSGSGTDFTLTISSLQPEDSATYYCQQYWTFPLTFGGGTKVEIKRTVAAPSVFIFPPSDEQLKSGTASVVCLLNNFYPREAKVQWKVDNALQSGNSQESVTEQDSKDSTYSLSSTLTLSKADYEKHKVYACEVTHQGLSSPVTKSFNRGECGSSGGGGSGGGGSSGGVTGYRLFEEIL
notes: kappa light chain-linker-SmBiT; germline Vk1-27*01
- Percent pairing [1]: 84%
- Percent pairing [2]: 81%
- Percent pairing [3]: 95%
- Percent pairing [4]: 100%
- Percent pairing [5]: 96%

B2: α-IL12β light-SmBiT (SEQ ID NO: 162) (other)
light: QSVLTQPPSVSGAPGQRVTISCSGSRSNIGSNTVKWYQQLPGTAPKLLIYYNDQRPSGVPDRFSGSKSGTSASLAITGLQAEDEADYYCQSYDRYTHPALLFGTGTKVTVLGQPKANPTVTLFPPSSEELQANKATLVCLISDFYPGAVTVAWKADGSPVKAGVETTKPSKQSNNKYAASSYLSLTPEQWKSHRSYSCQVTHEGSTVEKTVAPTECSGSSGGGGSGGGGSSGGVTGYRLFEEIL
notes: lambda light chain-linker-SmBiT; germline Vl1-44*01
- Percent pairing [6]: 100%
- Percent pairing [7]: 100%
- Percent pairing [8]: 100%
- Percent pairing [9]: 100%
- Percent pairing [10]: 80%

B3: α-activin receptors light-SmBiT (SEQ ID NO: 150) (other)
light: QSALTQPASVSGSPGQSITISCTGTSSDVGSYNYVNWYQQHPGKAPKLMIYGVSKRPSGVSNRFSGSKSGNTASLTISGLQAEDEADYYCGTFAGGSYYGVFGGGTKLTVLGQPKANPTVTLFPPSSEELQANKATLVCLISDFYPGAVTVAWKADGSPVKAGVETTKPSKQSNNKYAASSYLSLTPEQWKSHRSYSCQVTHEGSTVEKTVAPTECSGSSGGGGSGGGGSSGGVTGYRLFEEIL
notes: lambda light chain-linker-SmBiT; germline Vl2-14*01
- Percent pairing [11]: 90%
- Percent pairing [12]: 90%
- Percent pairing [13]: 81%
- Percent pairing [14]: 75%
- Percent pairing [15]: 79%
- Percent pairing [16]: 100%
- Percent pairing [17]: 87%

B4: α-CSF2 light-SmBiT (SEQ ID NO: 102) (other)
light: EIVLTQSPATLSVSPGERATLSCRASQSVGTNVAWYQQKPGQAPRVLIYSTSSRATGITDRFSGSGSGTDFTLTISRLEPEDFAVYYCQQFNKSPLTFGGGTKVEIKRTVAAPSVFIFPPSDEQLKSGTASVVCLLNNFYPREAKVQWKVDNALQSGNSQESVTEQDSKDSTYSLSSTLTLSKADYEKHKVYACEVTHQGLSSPVTKSFNRGECGSSGGGGSGGGGSSGGVTGYRLFEEIL
notes: kappa light chain-linker-SmBiT; germline Vk3D-20*01
- Percent pairing [18]: 100%
- Percent pairing [19]: 93%
- Percent pairing [20]: 98%
- Percent pairing [21]: 83%

B5: α-TRAILR2 light (SEQ ID NO: 148) (other)
light: SSELTQDPAVSVALGQTVRITCQGDSLRSYYASWYQQKPGQAPVLVIYGKNNRPSGIPDRFSGSSSGNTASLTITGAQAEDEADYYCNSRDSSGNHVVFGGGTKLTVLGQPKANPTVTLFPPSSEELQANKATLVCLISDFYPGAVTVAWKADGSPVKAGVETTKPSKQSNNKYAASSYLSLTPEQWKSHRSYSCQVTHEGSTVEKTVAPTECS
notes: unmodified lambda light chain; germline Vl3-19*01; also called LLCP of multispecific molecules 4, 6, 12
- binding result [22]: binds
- binding result [23]: binds
- binding result [24]: binds

B6: α-CD221 light (SEQ ID NO: 136) (other)
light: SSELTQDPAVSVALGQTVRITCQGDSLRSYYATWYQQKPGQAPILVIYGENKRPSGIPDRFSGSSSGNTASLTITGAQAEDEADYYCKSRDGSGQHLVFGGGTKLTVLGQPKANPTVTLFPPSSEELQANKATLVCLISDFYPGAVTVAWKADGSPVKAGVETTKPSKQSNNKYAASSYLSLTPEQWKSHRSYSCQVTHEGSTVEKTVAPTECS
notes: unmodified lambda light chain; germline Vl3-19*01; also called LLCP of multispecific molecule 5
- binding result [25]: binds

B7: α-TRAILR2 light-SmBiT (SEQ ID NO: 147) (other)
light: SSELTQDPAVSVALGQTVRITCQGDSLRSYYASWYQQKPGQAPVLVIYGKNNRPSGIPDRFSGSSSGNTASLTITGAQAEDEADYYCNSRDSSGNHVVFGGGTKLTVLGQPKANPTVTLFPPSSEELQANKATLVCLISDFYPGAVTVAWKADGSPVKAGVETTKPSKQSNNKYAASSYLSLTPEQWKSHRSYSCQVTHEGSTVEKTVAPTECSGSSGGGGSGGGGSSGGVTGYRLFEEIL
notes: lambda light chain-linker-SmBiT; germline Vl3-19*01
- Percent pairing [26]: 100%
- Percent pairing [27]: 84%
- Percent pairing [28]: 77%
- Percent pairing [29]: 100%
- Percent pairing [30]: 100%
- Percent pairing [31]: 81%
- Percent pairing [32]: 100%
